Laboratory results published in patent publication US20130039923A1 (Novo Nordisk, published 2013).
Numbering of substitutions follows the chain as printed. Each block holds one binder with its values, some of them ahead of it.

Key:
[1] = target: T1, recombinant human interleukin-20 (human, UniProt Q9NYY1 25-176); assay: cell-based or functional assay
T1 sequence: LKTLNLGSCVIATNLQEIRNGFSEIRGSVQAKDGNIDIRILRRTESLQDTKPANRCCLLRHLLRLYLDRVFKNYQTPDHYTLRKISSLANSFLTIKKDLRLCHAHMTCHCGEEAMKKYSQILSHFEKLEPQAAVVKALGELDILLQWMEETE

[2] = target: T1, recombinant human interleukin-20; assay: SPR (Biacore 3000/T100), antibody amine-coupled on CM5, recombinant hIL20 injected 3.125-100 nM, 1:1 Langmuir, 25 C; antibody from hybridoma
Experimental: Affinity studies were performed using a direct binding procedure, with the monoclonal antibody covalently coupled via free amine groups to the carboxymethylated dextrane membrane (CM5) on the sensor chip surface. […] The kinetic parameters for the interaction could be calculated using a 1:1 interaction Langmuir fitting model.
The purified monoclonal antibodies were immobilized in individual flow cells on a CM5 type sensor chip. Immobilizations were performed using a standard amine coupling procedure, aiming for an immobilization level of 1000 Resonance Units (RU). The antibodies were diluted to 5 μg/ml in 10 mM NaAc pH 5.0. […] Association (injection) was 3 min., followed by a 30 min. dissociation (wash) period. Flow rate was 30 μl/min. Experiments were performed at 25° C. Regeneration of the surface following each cycle, was accomplished by injection of 30 sec. pulse of 10 mM Glycin-HCl pH 1.8, at a 30 ul/min flow rate. Detection in all flow cells simultaneously. Flow cell No. 1 contained no immobilized antibody, and was used for subtraction of background and bulk. […] Data was inspected for mass-transport limitations prior to calculation of the kinetic parameters. Experiments were performed on Biacore 3000 and T100 instruments. Data was evaluated using Biaeval 4.1 and Biacore T100 evaluation software.

[3] = target: T2, Peptide no. 41 (Figure 8A); assay: Ala-scan peptide array of hIL20 74-96 on cellulose; fluorescein-labelled antibody; fluorescence as OD
T2 construct: Ala-scan peptide on the array; also called Peptide no; Q75A
T2 peptide: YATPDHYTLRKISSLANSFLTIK
Experimental: (§1) The screenings were done using fluorescence labelled antibodies. The labelling was done by gel-filtering the antibody stock against 1% NaHCO3, using NAP5 column (GE Healthcare according the manual from manufacturer. This was followed by adding 25 mole equivalents of 5(6)-carboxyfluorescein N-hydroxysuccinimide ester (Sigma, C1609) dissolved in DMSO. The coupling was allowed to continue for 2 hours followed by a gelfiltration against TRIS washing buffer (50 mM TRIS, pH=7.4, 0.15M NaCl, 0.1 M ArgHCl, 0.05% Tween 20) in order to removed uncoupled fluorescein.
(§2) Screening of arrays were done by adding 10 μl of antibody to 30 ml incubation buffer (0.5% BSA, 50 mM TRIS, pH=7.4, 0.15M NaCl, 0.1 M ArgHCl, 0.05% Tween 20). The sheets were incubated for 1-2 hours, followed by washing five times with washing buffer. […] The fluorescence intensity were measured and transformed into digits that were exported to Prism 5 (Graph Pad Software, USA) for further analysis.

[4] = target: T3, Peptide no. 42 (Figure 8A); assay: as above
T3 construct: Ala-scan peptide on the array; also called Peptide no; T76A
T3 peptide: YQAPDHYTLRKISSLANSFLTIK
Experimental: as §1, §2

[5] = target: T4, Peptide no. 44 (Figure 8A); assay: as above
T4 construct: Ala-scan peptide on the array; also called Peptide no; D78A
T4 peptide: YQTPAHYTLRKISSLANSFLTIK
Experimental: as §1, §2

[6] = target: T5, Peptide no. 45 (Figure 8A); assay: as above
T5 construct: Ala-scan peptide on the array; also called Peptide no; H79A
T5 peptide: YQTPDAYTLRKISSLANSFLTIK
Experimental: as §1, §2

[7] = target: T6, Peptide no. 46 (Figure 8A); assay: as above
T6 construct: Ala-scan peptide on the array; also called Peptide no; Y80A
T6 peptide: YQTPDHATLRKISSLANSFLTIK
Experimental: as §1, §2

[8] = target: T7, Peptide no. 47 (Figure 8A); assay: as above
T7 construct: Ala-scan peptide on the array; also called Peptide no; T81A
T7 peptide: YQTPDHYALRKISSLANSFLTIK
Experimental: as §1, §2

[9] = target: T8, Peptide no. 49 (Figure 8A); assay: as above
T8 construct: Ala-scan peptide on the array; also called Peptide no; R83A
T8 peptide: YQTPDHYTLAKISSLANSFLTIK
Experimental: as §1, §2

[10] = target: T9, Peptide no. 51 (Figure 8A); assay: as above
T9 construct: Ala-scan peptide on the array; also called Peptide no; I85A
T9 peptide: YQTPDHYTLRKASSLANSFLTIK
Experimental: as §1, §2

[11] = target: T10, Peptide no. 52 (Figure 8A); assay: as above
T10 construct: Ala-scan peptide on the array; also called Peptide no; S86A
T10 peptide: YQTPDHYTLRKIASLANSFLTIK
Experimental: as §1, §2

[12] = target: T11, Peptide no. 53 (Figure 8A); assay: as above
T11 construct: Ala-scan peptide on the array; also called Peptide no; S87A
T11 peptide: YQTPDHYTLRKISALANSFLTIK
Experimental: as §1, §2

[13] = target: T12, Peptide no. 54 (Figure 8A); assay: as above
T12 construct: Ala-scan peptide on the array; also called Peptide no; L88A
T12 peptide: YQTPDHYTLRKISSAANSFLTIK
Experimental: as §1, §2

[14] = target: T13, Peptide no. 55 (Figure 8A); assay: as above
T13 construct: Ala-scan peptide on the array; also called Peptide no; N90A
T13 peptide: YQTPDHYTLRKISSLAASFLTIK
Experimental: as §1, §2

[15] = target: T14, Peptide no. 56 (Figure 8A); assay: as above
T14 construct: Ala-scan peptide on the array; also called Peptide no; S91A
T14 peptide: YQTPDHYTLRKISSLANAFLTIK
Experimental: as §1, §2

[16] = target: T15, Peptide no. 57 (Figure 8A); assay: as above
T15 construct: Ala-scan peptide on the array; also called Peptide no; F92A
T15 peptide: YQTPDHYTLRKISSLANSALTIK
Experimental: as §1, §2

[17] = target: T16, Peptide no. 58 (Figure 8A); assay: as above
T16 construct: Ala-scan peptide on the array; also called Peptide no; L93A
T16 peptide: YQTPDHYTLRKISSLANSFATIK
Experimental: as §1, §2

[18] = target: T17, Peptide no. 59 (Figure 8A); assay: as above
T17 construct: Ala-scan peptide on the array; also called Peptide no; T94A
T17 peptide: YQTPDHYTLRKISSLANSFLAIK
Experimental: as §1, §2

[19] = target: T18, Peptide no. 60 (Figure 8A); assay: as above
T18 construct: Ala-scan peptide on the array; also called Peptide no; I95A
T18 peptide: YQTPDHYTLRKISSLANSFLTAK
Experimental: as §1, §2

[20] = target: T19, Peptide no. 61 (Figure 8A); assay: as above
T19 construct: Ala-scan peptide on the array; also called Peptide no; K96A
T19 peptide: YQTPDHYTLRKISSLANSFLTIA
Experimental: as §1, §2

IC50, inhibition of IL20 induced proliferation of BaF-3(hIL20R) at 1e-9M hIL20 (assay 1) [1]: 180 nM | IC50, inhibition of IL20 induced proliferation of BaF-3(hIL20R) at 1e-9M hIL20 (assay 2) [1]: 420 nM | IC50, inhibition of IL20 induced proliferation of BaF-3(hIL20R) at 1e-9M hIL20 (assay 3) [1]: 340 nM | IC50, inhibition of IL20 induced proliferation of BaF-3(hIL20R) at 1e-9M hIL20 (assay 6) [1]: 120 nM | IC50, inhibition of IL20 induced proliferation of BaF-3(hIL20R) at 1e-9M hIL20 (assay 7) [1]: 436 nM | Kd [2]: 0.55 nM | koff [2]: 0.00011 s⁻¹ | kon [2]: 190000 M⁻¹ s⁻¹
B1: human anti-hIL20 monoclonal antibody 15D2 (antibody, V domains shown)
VH: QVQLVQSGAEVKRPGASVKVSCKASGYTFTNDIIHWVRQAPGQRLEWMGWINAGYGNTQYSQNFQDRVSITRDTSASTAYMELISLRSEDTAVYYCAREPLWFGESSPHDYYGMDVWGQGTTVTVSS
VL: AIQLTQSPSSLSASVGDRVTITCRASQGISSALAWYQQKPGKAPKLLIYDASSLESGVPSRFSGSGSGTDFTLTISSLQPEDFATYYCQQFNSYPLTFGGGTKVEIKR
notes: also called 15D2-wt; 15D2 wild-type

IC50, inhibition of IL20 induced proliferation of BaF-3(hIL20R) at 1e-9M hIL20 (assay 1) [1]: 260 nM | IC50, inhibition of IL20 induced proliferation of BaF-3(hIL20R) at 1e-9M hIL20 (assay 2) [1]: 4540 nM | IC50, inhibition of IL20 induced proliferation of BaF-3(hIL20R) at 1e-9M hIL20 (assay 3) [1]: 760 nM | IC50, inhibition of IL20 induced proliferation of BaF-3(hIL20R) at 1e-9M hIL20 (assay 6) [1]: 200 nM | binding result [3]: binds | binding result [4]: binds | binding result [5]: binds | binding result [6]: binds | binding result [7]: binds | binding result [8]: binds | binding result [9]: binds | binding result [10]: binds | binding result [11]: binds | binding result [12]: binds | binding result [13]: binds | binding result [14]: binds | binding result [15]: binds | binding result [16]: binds | binding result [17]: binds | binding result [18]: binds | binding result [19]: binds | binding result [20]: binds | Kd [2]: 0.75 nM | koff [2]: 0.0001 s⁻¹ | kon [2]: 140000 M⁻¹ s⁻¹
B2: human anti-hIL20 monoclonal antibody 5B7 (antibody, human IgG4, V domains shown)
VH: B1 VH with T30S, N31S, D32H, I34M, Q59K, S69T, S106L
VL: B1 VL
notes: described as human IgG4; also called 5B7-wt
